The series is described as follows: protease stability score; higher = more stable; yeast display proteolysis, trypsin and chymotrypsin.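 Note: relative to predicted unfolded state with 0 unfolded-like and 1 meaning tenfold more protease.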
As to “SEDEKRAKEFDERFNENLLTGNFEKLLHLADPNAKVFYNGQENHGMHLFLKWMVELLKQIRVEDVELDDYKIYGEKIVLDVTIHTRFDGQETEWKTRIITTKVDGRWVLKTVEIR”, the protease stability score was determined as 1.45. Regarding “SEDEKRLLDLAKEWIHNWLTGDEESMQKLADPSTRYEIGDKELHGMEEVNRSIKISLDELRVKHIDIERVKAINGVVTIHTRIDVEFNGKRMIIETIIRIDIFNGRIKQVWVEFR”, the protease stability score turned out to be 1.21. To “SEDEKSIKVAIELIINSVRTGDERFIKELADPHVRLEIGNKRVHGREEFAKLLSEENRQMRIHIIIDDVKSVGDFVFIRGTIEIHIDGVEERREFEIFVWKFNGRWVIKEERIH” belongs 1.43; to “SEDEKTTKDVFREIKEILLTGDWRALERLLDPHVRFDINGQEIHGRESILEYWLEQVRRLGIDHIEIRLHHIDVQGDKIHLDVRIIYRYGDKEYREETKFVIIKIDGKWHLKEYHVD”, 2.11; to “SEDEKTWHKLMEDHIKDWITGNEEKLEENADPHARFELHVGDKRITDHGRDFIEHWVDRIKNLRIELHDFEIQGNKVHLDVRVNVNGVHEIVTIIVIVIDGKLHSLHIHVEIR”, -0.08. Consider “SEDEKVALEMLEWLSTARRTGDEHVMRELIDPHTRLHYGDKIYIGRDHVIELLLQLRVHIHHVELTHFESVGDKIKLHTEEDGHIDIDGRHHRVIIHTTMYARKFDGQWHTEEIRIH”, for which the protease stability score is 1.93. In the case of “SEDEKVVFQILRLWVDLLLTGDEEEMLHLADPNTRVEIGEFDDHGREAMEFMIRRFDVIEDIKIRDIRTIDGKVQIHGEVHSHFNGRRFTIHVEIIARKIDGRWKLTSMHFI” it was 2.08; in that of “SEDEKVVKWASDVLLDYIRTGDWRSLEELIDPHARHDVNGVEIIGMEHILKHFMELRRRIDHIHLRVHHIRVFDGQIDLNGKLHVNINGREIELDTRVIALKVNGRWVNHIISIG”, 1.44.

The sequence “SEDEKVYLKLVEDWIRIWRTGDEDMAEKLADPNVKIIIGDKSTHGREEWTRVVRELRTTEFDAHSITVVDGVVELDGRSRGDINGVEMNSHFTFILYIVDGRLKSQEIEVH” displayed a protease stability score of 2.03. In the case of “SEDEKWIRHAIRLLSEALETGDESMEHHLMDPNVKIRIDGVQYIGWEHWKKFVDRFDHEKIEHVHIRHIEVFNGRVDLDGFVHIILFVDGQEIRETRRTRIIVLKYNGKWLIESIEIE” it was 2.3. In the case of “SEDENILRRVVNILLHVWMTGDEDSLKELIDPHARMDFDGQEVHGREEITRLIRTILHELGIKHFELHRHHIDVQGDKAHIEVDGVDDVDGRKVKVIIRMHVLKVNGRWKTRIVYFERQ” it was 1.65; in that of “SEDENLIEEFLRRLMKWHNTGNFDEILNMVDPNTRIIVGDKFHHGRDALRYMWEFLGVDHVRIHVKRQEIIGDKVHNDTELEVNVNGKNLRIKEKLVVIKVNGVWILERIEIQ”, 1.48; in that of “SEDENLIKHVKELLTHRAHTGDERELERLVDPNVKIIVGDKFQIGRELMLETWHRWLEEAGVDQIRLTLHHERIQGDYIILEVTYDVNGREIELTIIHIKVNGKWRLHSMKVR”, 0.529. In the case of “SEDEQDAHKWLQLFIDFLKTGDEELMEKFLDPTVRSRVGDKETHGREMLVLHLLFLGVDHIHFRHVEERVYNGRVLLIITILIRVGDKHVETEIRVEIDKINGRWLAETIHIRIR” it was 0.778; in that of “SEDEQESRDIIKLLDKSIETGDEKTATRLADPHMRLDIDGVDLHGREEFVRWVIFVVREMRSRVEHTRVRMYDGRAEVDTTLLFIFEGRELRVESHIIMLKIDGRWIIHEVRIH”, 1.26.

As for “SEDEQHLRRMLKVWDTAVKTGDEHLLDRLADPDVRIDINGVELHGREELERMLKQMRIEFEDSDLNHVHIQGDKIHADTEVVVIIIINGREERRRLRIESIVWKVNGRWHFKEFRFK”, the protease stability score is 1.4. To “SEDEQLAREAIERLLQDFSTGNFERLMEMVDPNVRWEVGDFVSHGRENWSEHFRTYLEKMGFKHVNVRLKHIEVIGNKVIVHSEIIINVDGQELRMQSSSHVVKINGRWVLRSESHL” belongs 2.06; to “SEDEQLRYELAELFFHLISTGDEETIRHYFDPHVLVMIFVNGRNIENHGWEEMTRSLRELRIKDSRLKRVDVYGDYARMDIRVDGEINGVRRDTEVEIRIKWVNGRWKSVNIHIH”, 2.14; to “SEDEQQALEIIRQWVEFVRTGDEDSVRRLLDPNVRYEVNGREFHGRELVVRILWEIVYHLGVKHVDNKVEHMEIQGEFVKVETTMILRYNGRTLYIDTRIIIFKIDGRWVFRSIEEK”, 1.63. In the case of “SEDEQSLREHIEWIIRALETGDWKKIEKLLDPHTRQDVNGREHIGREEVSRAIVQTFETLGVDHVQLTEIRNINGRLIVHVKMDVNGKILDLELIVTKIDGKWFMESVRLH” it was 1.89. To “SEDERDAHRAWEIWLKTLETGNEEDMLKLMDPNVRIIIGDKHHHGREELEKILRRYDHIDMEHVHLRHLEVQGEKVIYIGEIHMVFHFNGVTRRLHTEAILILTKVNGRWSQKSLEIK” belongs 1.32; to “SEDERDAHRILDEEFEAIWTGDEHFLRELLDPNVQMDFNGVKLHGRHAFREIFRRFDWVDRIRLEEIRIFNGKVEIHIREDGFIDGRRTNTTSVFFMEKVDGRWKVRKMRIG”, 1.66. The sequence “SEDERDAKFATDLVLHLLRTGDEEKLLQLLDPNVRVEQGNKDWHGREDWHDFMEIMGIDHMTIHHVELRVVNGRVESHVDIRLLVNGRDDDVQLVLFMKKVDGRWRVTSLRFIYR” yielded a protease stability score of 1.74. In the case of “SEDERDAKMFIDLLNEAMHTGDEQIIKDLVDPHVKIFVGDKIYIGWERYRHMLEEIRIHRWDSEIKRYRVFDGRLEVEGVLHFDVEVNGKRREISTHVELHFDKFDGRWIVREISVH” it was 1.76; in that of “SEDERDAKRAEEEFKRHVETGDEKMLREMMDPHVRFEIGDKEFIGWNFAEKLHLDLIERIDHEELILRHINVVNGKVDSDVELRVHVDGVTIIVRTRIISKKIDGRWLIRSIIIH”, 0.695. To “SEDERDAQHFIELWDEAMRTGDFELLHYLMDPHTRILVNGRNLHGWEIYHKLLHEIRVKDSRSEDSRVIGDKVRVDQRVHGIVNGVETDLKTHLITEKFNGRWHYRSVEIK” belongs -0.189.

For the sequence “SEDERDARELMEIEIRAKRTGDEDTLERLMDPHMRTDINGKELVGREVLEWERKRVDHIHDFRIHHVTSVNGRLDIDASLRLTVDGVEETMRFRILTRKVNGRWIVEFLIVK”, the protease stability score turned out to be 0.985. In the case of “SEDERDARHYLKEFEHAIETGDEHRLDELLDPNVKIDIDGVEHHGREWFRTLEHHIRVHSRVELKHIEVYGNFIVMDGHLHREIRINGRRIETHSRTIIIMRKVNGRWLVSELRFR” it was 1.52; in that of “SEDERDARTMTEEITHIIETGDEHRFQELADPNMRLEQGEYHRHGREQVVEFLREVLRELRLKHIHIKDIHVIDGRVIIDVWVHSQYGDKEFTVKVIWIVHKIDGRWIFHSVRIE”, 1.35. To “SEDERDIEHAVKVEIKSYETGDEKSWREYVDPHVRIEQGDFLFHGWEDAVKLYAKIKNLTLEVKDMKVYNGRVHSEGVFKFNGQSMETRLIIFKIDGQWIVHSIHIK” belongs 1.82. In the case of “SEDERDIREAFKRWVHNVETGDFESLLKLFDPNVKTTIDGREYHGRDFLVRRLSEMRVHHIEIEHFDIQGDKVNVRGRMDGQIGDKRQDVHFVIHMVKINGRWLLTELTEK” it was 2.23; in that of “SEDERDISEVLEEISRIWKTGDEKRFRDLADPNVKMVVNGRELHGRDFAIEAWRKFRELYGIKHIRTVQVNSIDIQGDKVHVDTSMDGQQGEKRTVLRSEIIMLKVDGRWHLESMSFG”, 1.72. “SEDERDMEKASEDMLRNWMTGDFKSLHTLLDPHYRIDIDGQWHHGRDLWVEALRELLHQLGVERVEARERDFKIQGNKLESHIELRYNGRTIETDDLFIKIDGRWFIHSIHLRIR” registered a protease stability score of 0.94. To “SEDERDMERFNRLVSHAMETGDEDTLNHLADPNVRVHIGDKDLHGREDYSRWLHELIRRVDYMEVHIHDERLQGDKAIVDSRIRLKFDGVETRIETILYLKKFDGRWRMTTFELK” belongs 0.705; to “SEDERDSEEWAKILIKLLETGDEDELRRLMDPHVRTEVIVNGRTITHHGREDLTEFLRKLGADVIDIERVRVIDGVVHLDSRSKQGEKHVTLHFEALKINGRWITERFHVKFH”, 1.3.

For the sequence “SEDERDSKIAAEINRHWLETGDEEHFKKNVDPHTKVRIGDKEYHGRHFLLHILEHHVKHLWFEVRIEDLRLIGDFVHIDMVLFIRVDGRQETFRIRIIAQKIDGRWVVKHINIE”, the protease stability score was found to be 0.097. “SEDEREAIRFLELWVRESRTGDEDSTDRLADPHTRVEFENHHSVGREHAVTFLIHLRTHHFEIHEVQVFNGRIEMRLHVDGIFNGRRYRSDVLLVVLKIDGQWLLHSIRFH” yielded a protease stability score of 1.52.

Turning to “SEDEREFEEFVRFFFKMMVTGDEDDLIRLLDPHAKFEINGKILHGWRHLLEEIREMGIKHWKIRDIKVQGEKVENELELEVGEKRFHIRLIATKVNGKWHVKEFSIHEI”, the protease stability score came to 2.29. To “SEDEREFLDVLKWLIEAVATGDERIWKELVDPHVRLEVGDKHRHGRETFEKTMRHLRVKEVRVKLHDFDFIGEKMTADVKLEIHLIVGDKERDIRLDIIVHSRKIDGKWHVESIHIR” belongs 1.51.

With “SEDERELKHWQTIALRLWKTGDFKSELENLDPHARLHINGVHIIGRERMKEFLERIKNLRVEHLHDEHVHIQGDKITLHGHMDVIINGQRTEVDYEFILLKVNGRWLDHSIEMR”, the protease stability score was determined as 1.1. In the case of “SEDERFWKKALDDLLDTIRTGDEHKFREMMDPNVRVHIGDKHFHGREQASEQVVRLGVDHIELRRVDFQGDYLEIHGHLRVNGRETRIHFVLLKIDGRWVVKEVRQE” it was 2.21; in that of “SEDERFWVERLEEVLRAILTGDEDRIRELADPDVRVRYGDKELHGWKDLHEFMEFFKNVRINVRHVRNQGDKQEVDSEFTFEGRRHETELRLVVINGRVRHIEIIIR”, 1.41. To “SEDERLALKMAEVIMHHLSTGDERILESFFDPNVQFIYGDKTNHGMEETLKFWEHIRIEVKSFTWKHITHVDGRLEMHTRSRELFIYGEFKEDRETRVHIIIDKVDGKWNHHSVRFR” belongs 0.06; to “SEDERLAREVIEILHNIMHTGDEHLLDEMLDPNAKVHFDGKDFHGMDVWIKFLIEIRVDSIHVRRVHSINGVLHVDSELDGTINGKKDIRRTRIIMEKVDGRWRVTEVRYV”, 1.41; to “SEDERLLREAVEELIHSWETGDFDHVLRMFDPDVRLHFEGRHTHGREVYEQQLRFLWERFKNVRITVEYKHVEVINGKAIVHGKLLLIIGDKTVELTNEIYVRKINGKWLSEEIRIK”, 1.44.

The sequence “SEDERLMKKLWEDLIRDLITGDEDSMKRLADPNVLVEFENHKEHGRDLFSHLMFHARIKRIHTHEVEIQGDKAVYNVRIDGEINGQRHDYEREIYSFKVNGQWFIERVIIK” registered a protease stability score of 1.4. The sequence “SEDERLVRHALNELLHHIETGDEERLIKLIDPNYRISINGQELHGWEEYVRLIREWRIRRFRVKDVDVQGDKANLDVRTHGDIDGQHHDFTIKIIATKINGRWINEEIIVE” came in with a protease stability score of 2.4.

These data come from the NTF2 design screens of Basanta et al. (2020).
